This is an account of results in US20220332804A1 (CSL INNOVATION, published 2022).

Test in all cases: SPR; KD relative to WT C2;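 also: biacore SPR at 37 °C, anti-C2 mAbs captured on an anti-human IgG chip, alanine or serine C2 surface mutants tested, KD from 1:1 fit compared with wild-type C2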
Background: SPR reads the build-up and loss of mass on a sensor chip optically.

One assay addresses T1, human C2 R688A (human, UniProt P06681 21-752).
T1 sequence: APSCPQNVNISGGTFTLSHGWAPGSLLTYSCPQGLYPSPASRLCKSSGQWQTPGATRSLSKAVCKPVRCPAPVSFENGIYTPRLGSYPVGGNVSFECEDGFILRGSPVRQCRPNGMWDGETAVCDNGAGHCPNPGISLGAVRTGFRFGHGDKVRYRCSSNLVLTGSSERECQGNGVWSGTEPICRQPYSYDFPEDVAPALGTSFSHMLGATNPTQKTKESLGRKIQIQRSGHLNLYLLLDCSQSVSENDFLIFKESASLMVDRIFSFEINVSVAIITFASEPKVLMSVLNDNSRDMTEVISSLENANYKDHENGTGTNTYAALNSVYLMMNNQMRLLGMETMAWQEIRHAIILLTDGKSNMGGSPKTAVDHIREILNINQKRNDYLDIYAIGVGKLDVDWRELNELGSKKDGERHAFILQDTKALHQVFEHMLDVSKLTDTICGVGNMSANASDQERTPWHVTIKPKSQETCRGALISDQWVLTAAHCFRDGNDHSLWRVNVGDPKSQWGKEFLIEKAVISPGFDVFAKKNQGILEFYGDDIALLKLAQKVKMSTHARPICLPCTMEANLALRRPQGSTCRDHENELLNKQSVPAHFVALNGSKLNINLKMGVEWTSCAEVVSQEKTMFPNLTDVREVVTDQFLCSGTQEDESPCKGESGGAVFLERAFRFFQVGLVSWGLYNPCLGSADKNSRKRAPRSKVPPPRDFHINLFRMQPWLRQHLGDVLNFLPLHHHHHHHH

The next assay deals with T2, human C2 G414A (human, UniProt P06681 21-752).
T2 sequence: T1 sequence with G394A, A668R

For a further assay, the target named is T3, human C2 L453A (human, UniProt P06681 21-752).
T3 sequence: T1 sequence with L433A, A668R

For the next assay, the target named is T4, human C2 G466A (human, UniProt P06681 21-752).
T4 sequence: T1 sequence with G446A, A668R

Positions count from the first letter of the chain named.

B1: RF16-214 (antibody, V domains shown)
VH: EVQLLESGGGLVQPGGSLRLSCAASGFTFSWYQMMWVRQAPGKGLEWVSRIYPSGGGTAYADSVKGRFTISRDNSKNTLYLQMNSLRAEDTAVYYCARDAGYGDNWGQGTLVTVSS
VL: QSALTQPPSVSVSPGQTASITCSGDKLGEKYASWYQQKAGQSPVMVIYQDRKRPSGIPERFSGSNSGNTATLTISGTQAMDEADYYCQAWDTRAVVFGGGTKLTVLG
Regarding B1, the Fold diff with human C2 R688A is 3 fold; with human C2 G414A, 0 fold; in the assay with human C2 L453A it was 45 fold; with human C2 G466A it was 5 fold.
